The target in assay [1] is T1, 2SHA-RHOA L63 constitutively active mutant, deleted for the CAAX motif (Homo sapiens (Human)., UniProt P61586, Q63L).
T1 construct: RHOA (Ras homologous family member A), deleted for the carboxy terminal four amino acids (CAAX motif); also called RHOA-CA; RHOA Q63L; source: E. coli BL21(DE3), purified (Strep-Tactin); not shown: 2x-Strep-tag, N-terminal, kept; HA, N-terminal, kept
Nature of the assay: SPR; RH57-6xHis-Myc-6xHis captured on Ni-NTA chip (250-300 RU); 2S-HA-RHOA L63 or N19 as analyte, 3.125-50 nM, single-cycle kinetics; HBS-P+ (10 mM HEPES pH 7.4, 150 mM NaCl, 0.05% P20); 1:1 Langmuir fit; BIAcore T200. The note with it: both partners purified. Background: Surface plasmon resonance follows binding to a sensor surface in real time, without labels.

In assay [2] the target is 2SHA-RHOA N19 dominant negative mutant, deleted for the CAAX motif (UniProt P61586 1-189, T19N). The assay is described as follows: SPR.
For assay [3], the target named is T2, 2SHA-RHOA wild type, deleted for the CAAX motif (Homo sapiens (Human)., UniProt P61586).
T2 construct: RHOA (Ras homologous family member A), deleted for the carboxy terminal four amino acids (CAAX motif); the two nucleotide states are told apart by the assay; also called RHOA WT; 2S-HA-RHOA wt; source: E. coli BL21(DE3), purified (Strep-Tactin), loaded with GTPγS or GDP; not shown: 2x-Strep-tag, N-terminal, kept; HA, N-terminal, kept
Nature of the assay: SPR; RH57-6xHis-Myc-6xHis captured on Ni-NTA chip; 2S-HA-RHOA WT loaded with GTPγS as analyte, 12.5-200 nM, single-cycle kinetics; HBS-P+; 1:1 Langmuir fit. Particulars: both partners purified.

For the next assay, the target named is T3, endogenous RHOB (Homo sapiens (Human)., UniProt P62745).
T3 construct: RHOB (RAS homologous family member B), endogenous in HeLa cells; also called RHOA/B/C proteins; source: endogenous, HeLa lysate
Nature of the assay: co-IP; RH57-6xHis-Myc expressed in HeLa; fresh, non-loaded lysate; intracellular antibody captured on His-tag Ni-NTA resin; endogenous RHO proteins blotted. Particulars: partners not purified.

A further assay concerns the target T4, endogenous RHOC (Homo sapiens (Human)., UniProt P08134).
T4 construct: RHOC, endogenous in HeLa cells; also called RHOA/B/C proteins; source: endogenous, HeLa lysate
Described as above. The note with it: partners not purified.

T1 sequence (P61586 1-189 Q63L): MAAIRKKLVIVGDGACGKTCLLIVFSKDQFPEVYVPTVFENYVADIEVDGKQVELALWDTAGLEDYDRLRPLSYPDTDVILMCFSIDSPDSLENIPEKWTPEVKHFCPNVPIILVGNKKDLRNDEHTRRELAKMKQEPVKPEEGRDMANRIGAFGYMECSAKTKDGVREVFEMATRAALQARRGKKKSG
T3 sequence (P62745 whole entry): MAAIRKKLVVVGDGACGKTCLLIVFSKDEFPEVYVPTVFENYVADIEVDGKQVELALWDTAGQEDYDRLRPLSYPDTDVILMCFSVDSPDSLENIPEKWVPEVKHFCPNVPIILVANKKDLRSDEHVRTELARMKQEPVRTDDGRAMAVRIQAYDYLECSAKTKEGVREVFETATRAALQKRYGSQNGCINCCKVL
T2 sequence (P61586 1-189, stated change not applied): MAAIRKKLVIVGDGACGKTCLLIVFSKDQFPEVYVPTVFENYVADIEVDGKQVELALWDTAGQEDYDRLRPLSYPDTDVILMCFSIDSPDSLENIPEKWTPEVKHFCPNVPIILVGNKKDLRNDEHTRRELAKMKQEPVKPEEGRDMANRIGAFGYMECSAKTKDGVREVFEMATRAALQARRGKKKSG
2SHA-RHOA N19 dominant negative mutant, deleted for the CAAX motif, sequence (P61586 1-189 T19N): as the sequence (P61586 1-189 Q63L) above, with T19N, L63Q counted along it
T4 sequence (P08134 whole entry): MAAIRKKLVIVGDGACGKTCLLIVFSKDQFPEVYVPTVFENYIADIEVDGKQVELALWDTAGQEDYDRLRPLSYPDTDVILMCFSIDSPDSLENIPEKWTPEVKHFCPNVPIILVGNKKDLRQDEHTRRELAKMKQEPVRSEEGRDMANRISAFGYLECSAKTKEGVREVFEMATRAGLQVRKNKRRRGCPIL

B1: RH57 hs2dAb fused at its carboxy terminal end with 6xHis-Myc-6xHis tag (VHH)
VHH: EVQLQASGGGFVQPGGSLRLSCAASGDTWWSSAMGWFRQAPGKEREFVSAISFYPTEYTYYADSVKGRFTISRDNSKNTVYLQMNSLRAEDTATYYCAWIAWGPWMRTSWYWGQGTQVTVSS
notes: humanized synthetic single domain antibody from the NaLi-H1 phage display library; also called RH57-6xhis-myc-6xhis; RH57 nanobody; source: E. coli XL1BLUE periplasm, purified (His-tag purification beads); not shown: 6xHis, C-terminal, kept; Myc, C-terminal, kept
The Kd is the equilibrium constant for the complex coming apart. Consider B1, for which the Kd in assay [1] worked out at 28 nM; in assay [2], 2410 nM; in assay [3] it was 60.5 nM.

B2: RH57 intracellular antibody with carboxy-terminal 6xHis tag followed by Myc tag (VHH)
VHH: B1 VHH
notes: as the VHH of m1; also called hs2dAb RH57 with a 6xhis and carboxy Myc tag; source: HeLa, transiently transfected, in lysate; not shown: 6xHis, C-terminal, kept; Myc, C-terminal, kept
B2: the binding result with endogenous RHOB and with endogenous RHOC was “binds” each time.

The values are drawn from publication PMC6640709, “Selection and Characterization of a Nanobody Biosensor of GTP-Bound RHO Activities” (Antibodies, 2019).
